Measured values: the RNAGym collection of RNA variant scans (doi:10.1073/pnas.2313332121)

B1: TPR t1 (parent)
chain: GACCAAUCUGCCCUCAGAGCUCGAGAACAUCUUCGGAUGCAGAGGAGGCAGGCUUCGGUGGCGCGAUAGCGCCAACGUCCUCAACCUCCAAUGCAUCCCACCACAUGAUGAUGCCUGAAGAGCCUUGGUUUUUUG

Variants of: B1
Assay: polymerase ribozyme fitness, log enrichment relative to wild type (log ratio); higher = more active; in vitro selection for triplet polymerase activity
How it was run: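 After PCR construction and transcription, each subunit's mutant library from a heterodimeric triplet polymerase ribozyme was annealed with a biotinylated primer, the partner subunit and triplets. Incubation was frozen, at −7 °C, and extended constructs were gel-excised, bound to streptavidin beads and amplified by RT-PCR, in one selection round done in triplicate. Fitness is the logarithm of a genotype's enrichment divided by that of the wild type, from inverse-variance-weighted replicate averages of Illumina-sequenced inputs and outputs. The base of the logarithm is 2, and genotypes needed ≥10 input reads and ≥1 read per output.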

Variant | polymerase ribozyme fitness (log ratio)
GACCAAUCUGCCCUCACAGCUCGAGAACAUCUUCGGAUGCAGAGGAGGAAGGCUUCGGUGGCGCGAUAGCGCCAACGUCCUCAACCUCCAAUGCAUCCCACCACAUGAUGAUGCCUGAAGAGCCUUGGUUUUUUG [G17C C49A] | -4.92
GACCAAUCUGCCCUCACAGCUCGAGAACAUCUUCGGAUGCAGAGGAGGCAGGCUUGGGUGGCGCGAUAGCGCCAACGUCCUCAACCUCCAAUGCAACCCACCACAUGAUGAUGCCUGAAGAGCCUUGGUUUUUUG [G17C C56G U96A] | -5.36
GACCAAUCUGCCCUCACAGAUCGAGAACAUCUUCGGAUGCAGCGGAGGCAGGCUUCGGUGGCGCGAUAGCGCCAACGUCCUCAACCUCCAAUGCAUCCCACCACAUGAUGAUGCCUGAAGAGACUUGGGUUUUUG [G17C C20A A43C C123A U129G] | -3.55
GACCAAUCUGCCCUCACAGAUCGAGAACAUCUUCGGAUGCAGAGGAGGCAGGCUUCGGUGGCGCGAUAGCGCCAACGUCCUCAACCUCCAAUGCAUCCCACCACAUGAUGAUGCCUGAAGAGCCUUGGUUUUUUG [G17C C20A] | -5.15
GACCAAUCUGCCCUCACAGGUCGAGAACAUCUUCGGAUGCAGAGGAGGCAGGCUUCGGUGGCGCGAUAGCGCAAACGUCCUCAACCUUCAAUGCAUCCACCCACAUGAUGAUGCCUGAAGAGCCUUGGUUUUUUG [G17C C20G C73A C88U C99A A100C] | -4.19
GACCAAUCUGCCCUCAAAGCUCGAGAACAUCUUCGGAUGCAGAGGAGGCAGGCUUCGGUGGCGCGAUAGCGCCAACGCCCUCAACCUCCAAUGUAUCCCACCACAUGAUGAUGCCUGAAGAGCCUUGGUUUUUUG [G17A U78C C94U] | -3.74
GACCAAUCUGCCCUCACAGCUCGAGAAAAUCUUCGGAUGCAGAGGAGGCAGGCUUCGGUGGCACGAUAGCGCCAACGUCCUCAACCUCCAAUGCAUCCCACCACAUGAUGAUGCCUGAACAGGCUUGGUUUUUUG [G17C C28A G63A G120C C123G] | -6.85
GACCAAUCUGCCCUCAAAGCUCGAGAACAUCUUCGGAUGCAGAGGAGGCAGGCUUCGGUGGCGCGAUAGCGCCAACGUCCUCAACCUCCAAUGCACCCCACCACAUGAUGAUGCCUGAAGAGCCUUGGUUUUUUG [G17A U96C] | -3.36
GACCAAUCUGCCCUCACAGCUCGAGAACAUCUUCGGAUGCAGGGGAGGCAGGCUUCGGUGGCGCGAUAGCGCCAACGUCCUCAACCUCCAAUGCAUCCCAACAAAAGAUGAGGCCUGAAGAGCCUCGGUUUUUUG [G17C A43G C101A C104A U106A U112G U126C] | -6.47
GACCAAUCUGCCCUCACAGCUCGAGAACAUCUUCGGAUGCAUAGGAGGCAGGCUUCGGUGGCGCGAUAGCGCCAACGUCCUCAACCUCCAAUGUAUCCCACCACAAGAUGAUGCCUGAAGAGCCUUGGUUUUUUG [G17C G42U C94U U106A] | -5.2
GACCAAUCUGCCCUCAAAGCUCGAGAACAUCUUCGGAUGCAGAGGAGGCAGGCUUCGGUGGCGCGAUAGCGCCAACGUCCUCAACCUCCAAUGCAUCCCACCACAUGAUGAAGCCUGAAGAGCCUUGGUUUUUUG [G17A U112A] | -1.5
GACCAAUCUGCCCUCACAGCUGGAGAACAUCUUCGGAUGCAGAGGAGGCAGGCUUCGGUGUCGCGAUAGCGCCAACGUCCUCAACCUCCAAUGCAUCCCACCACAUGAUGAUGCCUGAAGAGCCUUGGUUUUUUG [G17C C22G G61U] | -6.24
GACCAAUCUGCCCUCAAAGCUCGAGAACAUCUUCGGAUGCAGAGGAGGCAGGCUUCGGUGGCGCGAUAGCGCCAACGUCCUCAACCUCCAAUGCAUCCCACCACAUGAUGAUGCCUGAAGAGCCUUGGUUAUUUG [G17A U131A] | -1.99
GACCAAUCUGCCCUCAAAGCUCGAGAACAUCUUCGGAUGCAGAGGAGGCAGGCUACGGUGGCGCGAUAGCGACAACGUCCUCAACCUCCAAUGCAUCCCACCACAUGAUGAUGCCUGAAGAGCCUUGGUUUUUUG [G17A U55A C72A] | -3.74
GACCAAUCUGCCCUCACAGCUCGAGAACAUCUUCGGAUGCAGAGGAGGCAGGCUUCGGUGGCGCGAUAGCGCAAACGUCCUCAACCUCCAAUGCAUCCCACCACAUGAUGAUGCCUGAAGAGCCAUGGUUUUUUG [G17C C73A U125A] | -5.15
GACCAAUCUGCCCUCACAGCUCGAGAACAUCUUCGGAUGCAGAGGAGGCAGGCUUCGGUGGUGCGAUAGCGCCAACGUCCUCAACCUCCAAUGCAUCCCACCACAUGAUGAUGCCUGAAGAGCCUUGGUUUUUUG [G17C C62U] | -4.67
GACCAAUCUGCCCUCACAGCUCGAGAACAUCUUCGGAUGCAGAGGAGGCAGGCUUCGGUGGCGCGAUAGCGCCAACGUCCUCGACCUCCAAUGCAUCCCACCACAUGAUGAUGCCGGAAGAGCCUUGGUUUUUUG [G17C A83G U116G] | -5.65
GACCAAUCUGCCCUCACAGCUCGAGAACAUCUUCGGAUGCAGUGGAGGCAGGCUUCGGUGACGCGAUAGCGCCAACGUCCUCAACCGCCAAUGCAUCCCACCACAUGAUGAUGCCUGAACAGCCUUGGUUUUUUG [G17C A43U G61A U87G G120C] | -1.48
GACCAAUCUGCCCUCACCGCUCGAGAACAUCUUCGGAUGCAGUGGAGGCAGGCUUCGGUGGCGCGAUAGCGCCAACGUCCUCAACCUCUAAUGCAUCCCACCACAUGAUGAUGCCUGAAGAGCCUUGGUUUUUUG [G17C A18C A43U C89U] | -2.92
GACCAAUCUGCCCUCACAGCUCGAGAACAUCUUCGGAUGCAGAGGAGGCAGGCUUCGGUGGCGCGAUAGCGCCAACGUCCUCAUCCUCCAAUGCAUCCCACCACAUGAUGAUGCCUGAAGAGCCUUGGUUUUUUG [G17C A84U] | -4.87
GACCAAUCUGCCCUCACAGCUCGAGAACAUCUUCGGAUGCAGAGGAGGCAGGCUUCGGUGGCGCGAUAGCGCCAACGUCCUCAACCUCCAAUGCAUCCCACCAAAUGAUGAUGCCUGAAGAGCCUUGGUUUUUUG [G17C C104A] | -6.53

Variant | polymerase ribozyme fitness (log ratio)
GACCAAUCUGCCCUCACAGCUCGAGAACAUCUUCGGAUGCAGAGGAGGCAGGCUUUGGUGGCGCGAUAGCGCCAACGUCCUCAACCUCUAAUGCAUCCCACCACAUGAUGAUGCCUGAAGAGCCUUGGUUUUUUG [G17C C56U C89U] | -3.95
GACCAAUCUGCCCUCACAGGUCGAGAACAUCUUCGGAUGCAGAGGACGCAGGCUUCGGUGGCGCGAUAGCGUCAACGUCCUCAACCUCCAAUGCAUCCCACCACAUGAUGAUACCUGACGAGCCUUGGUUUUUUG [G17C C20G G47C C72U G113A A119C] | -7.02
GACCAAUCUGCCCUCACAGCUCGAGCACGUCUUCGGAUGCAGAGGAGGCAGGCUUCGGUGGAUCGAUAGCGCCAACGUCCUCAACCUCCAAUGCAUCCCACCACAUGAUGAUGCCUGAAGAGCCUUGGUUUUUUG [G17C A26C A29G C62A G63U] | -5.05
GACCAAUCUGCCCUCAAAGCUCGAGAACAUCUUCGGAUGCAGAGGAGGCAGGCUUCGGUGGCGCGAUAGCGCCAACGACCUCAACCUCCAAUGCAUCCCACCACAUGAUGAUGCCUAAAGAGCCUUGGUUUUUUG [G17A U78A G117A] | -2.6
GACCAAUCUGCCCUCACAGCUCGAGAACAUCUUCGGAUACAGAGGAGGCAGGCUUCGGUGGCGUGAUAGCGCCAACGUCCUCAACCUCCAAUGCAUCCCACCACAUGAUGAUGCCUGAAGAGCCUUGGUUUUUUG [G17C G39A C64U] | -4.45
GACCAAUCUGCCCUCACAGCUCGAUAACAUCUUCGGAUGCAGAGGACGCAGGCUUCGGUGGCGCGAUAGCGCCAACGUCCUCAACCUCCAAUGCAUCCCACCACAUGAUGAUGCCUGAAAAGCCUUAGUUUUUUG [G17C G25U G47C G120A G127A] | -7.42
GACCAAUCUGCCCUCACAGCUCGAGAAUAUCUUCGGAUGCAGAGGAGGCAGGCUUCGGUGGCGCGAUAGCGCCAACGUCCUCAAACUCCAAUGCAUCCCACCACAUGAUAAUGCCUGAACAGCCUUGGUUUUUUG [G17C C28U C85A G110A G120C] | -2.19
GACCAAUCUGCCCUCACAGCUCGAGAACUUCUUCGGAUGCAGAGGAGGCAGGCUUCGGUGGCGCGAUAGCGCCAACGUCCUCAACCUCCAAUGCAUCCCACCACAUGAUGAUGCCUGAAGAGCCUUGGUUUUUUG [G17C A29U] | -6.04
GACCAAUCUGCCCUCACAGCUCGAGAACGUCUUCGGAUGCAGAGGAGGCAGGCUUCGGUGGCGCGAUAGCGCCAACGUCCUCAACCUCCAAUGCAUCCCACCACAUGAUGAUGCCUGAAGAGCCUUGGUUUUUUG [G17C A29G] | -4.75
GACCAAUCUGCCCUCAAAGCUCGAGAACAUCUUCGGAUGCAGAGGAGGCAGGCUACGGUGGCGCGAUAGCGACAACGUCCUCAGCCUCCAAUGCAUCCCACCACAUGAUGAUGCCUGAAGAGCCUUGGUUUUUUG [G17A U55A C72A A84G] | -5.99
GACCAAUCUGCCCUCAAAGCUCGAGAACAUCUUCGGAUGCAGAGGAGGCAGGCUUCGGCGGCGCGAUAUCGCCAACGUCCUCAACCUCCAAUGCAUCCCACCACAUGAUGAUGCCUGAAUAGCCUUGGUUUUUUG [G17A U59C G69U G120U] | -2.26
GACCAAUCUGCCCUCAAAGCUCGAGAACAUCUUCGGAUGCAGAGGAGGCAGGCUUCGGUGGCGCGAUAGCGCCAACGUCCUCAACCUCCAAUGCAUCCCACCACAUGAUGAUGCCUGAAGAGCCUUGGAUUUUUG [G17A U129A] | -4.6
GACCAAUCUGCCCUCACAGCUCGAGAACAUCUUCGGAUGCAGAGGAGGCAGGCUUCGGUGGCGCGAUAGCGCCAACGUCCUCAACCUCCAAUGCAUCCCACCACAUGAUGAUGCCUGAAGAGCCUUGGUUUUUUG [G17C] | -3.67
GACCAAUCUGCCCUCAAAGCUCGAGAACAUCUUCGGAUGCAGAGGAGGCAGGCUCCGGUGUCGCGAUAGCGCCAACGUCCUCAACCUCCAAUGCAUCCCACCACAUGAUGAUACCUGAAGAGCCUUGGUCUUUUG [G17A U55C G61U G113A U130C] | -5.74
GACCAAUCUGCCCUCACAGCUCGAGAACAUCUUCGCAUGCAGAGGAGGCAGGCUUCGGUGGCGCGAUAGCGCCAACGUCCUCAACCUCCAAUGCAUCCCACCACAUGAUGAUGGCUGAAGAGCCUUGGUUGUUUG [G17C G36C C114G U131G] | -4.72
GACCAAUCUGCCCUCAAAGCUCGAGAACAUCUUCGGAUGCAGAGGAGGCAGGCUUCGGUGGCGCGAUAGCGCCAACGUCCUCAACCUCCAAUGCAUCCCACCACAUGAUGAUGCCUGAAGAGCCUUGGUUUAUUG [G17A U132A] | -2.35
GACCAAUCUGCCCUCACGGCUCGAGAACAUCUUCGGAUGCAUAGGAGGCAGGCUUCGGUGGCGCGAUAGCGCCAACGUCUUCAACCUCCAAUGCAUCCCACCACAUGAUGACGCCUGAAGAGCCUUGGUUUUUUG [G17C A18G G42U C80U U112C] | -0.371
GACCAAUCUGCCCUCACAGCUCGAGAACAUCUUCGGAUGCAGAGGAGUCAGGCUUCGGUAGCGCGAUAGCGCCAACGUCCUCAACCUCGAAUGCAUCCCACAACAUGAUGAUGACUGAAGAGCCUUGGUUUUUUG [G17C G48U G60A C89G C102A C114A] | -6.76
GACCAAUCUGCCCUCACAGCUCGAGAACAUCUUCGGAUGCAGAGGAGGCAGGCUUCGGUGGCGCGAUAGCGCCAACGUCCUCCACCUCCAAUGCAUCCCACCACAUGAUGAUGCCUGAGGAGCCUUGGUUUUUUG [G17C A83C A119G] | -1.01
GACCAAUCUGCCCUCACAGCUCGAGAACAUCUUCGGAUGCAGAGGAGGCAGGCUUCGGUGGCGCGAUAGCGUCAACGUCCUCAACCUCCAAUGCAUCCCAACACAUGAUGAUGCAUGAAGAGACUUGGUUUUUUG [G17C C72U C101A C115A C123A] | -5.23
GACCAAUCUGCCCUCACAGCUCGAGAACAUCUUCGGAUGCAGAGGAGGCAGGCUUCGGUGGCGCGAUAGCGCCAACGUCCUCAACCUCCAAUGCAUCCCACCACAUGAUGAUGCCUGAAGAGACUUGGUUUUUUG [G17C C123A] | -2.92
